Broadly, the IC50 is the concentration that gives 50% inhibition. Read a low IC50 as inhibition by little substance.

Where no end group is shown, it is not given here.

We go through four molecules from patent publication US6350731.

For one experiment, the target named is 17 DB-1. Nature of the experiment: CELIA on monoclonal 17 DB-1; coated antigen not given.
The next experiment addresses 22 DB-1. Nature of the experiment: CELIA on monoclonal 22 DB-1; coated antigen not given.
The next experiment addresses Rb 66. Nature of the experiment: competitive ELISA on antiserum Rb 66; coated antigen not given. On the technique in general: In an ELISA, binding on a coated surface is turned into a signal by an enzyme label.
For another experiment, the target named is 13 DB-1. Nature of the experiment: CELIA on monoclonal 13 DB-1; coated antigen not given.
The target of a further experiment is 19 DB-1. Nature of the experiment: CELIA on monoclonal 19 DB-1; coated antigen not given.
The target of another experiment is Rb 39. Nature of the experiment: competitive ELISA on antiserum Rb 39; coated antigen not given.
The target of a further experiment is Rb 38. Nature of the experiment: competitive ELISA on antiserum Rb 38; coated antigen not given.
The target in a further experiment is Rb 112. Nature of the experiment: competitive ELISA on antiserum Rb 112; coated antigen not given.
The target of a further experiment is 21 DB-1. Nature of the experiment: CELIA on monoclonal 21 DB-1; coated antigen not given.
Another experiment has as its target Rb 37. Nature of the experiment: competitive ELISA on antiserum Rb 37; coated antigen not given.
A further experiment concerns the target Rb 109. Nature of the experiment: competitive ELISA on antiserum Rb 109; coated antigen not given.
The next experiment deals with 2 DMB. Nature of the experiment: CELIA on monoclonal 2 DMB; coated antigen not given.
A further experiment addresses Rb 65. Nature of the experiment: competitive ELISA on antiserum Rb 65; coated antigen not given.
The next experiment concerns the target 9 DB-1. Nature of the experiment: CELIA on monoclonal 9 DB-1; coated antigen not given.
Another experiment concerns the target 4 DMB. Nature of the experiment: CELIA on monoclonal 4 DMB; coated antigen not given.
The target of another experiment is Rb 78. Nature of the experiment: competitive ELISA on antiserum Rb 78; coated antigen not given.
A further experiment has as its target 10 DB-1. Nature of the experiment: CELIA on monoclonal 10 DB-1; coated antigen not given.
Another experiment deals with 12 DB-1. Nature of the experiment: CELIA on monoclonal 12 DB-1; coated antigen not given.
The target in another experiment is Rb 67. Nature of the experiment: competitive ELISA on antiserum Rb 67; coated antigen not given.
The target in the next experiment is Rb 68. Nature of the experiment: competitive ELISA on antiserum Rb 68; coated antigen not given.

B1: GP10 (peptide)
peptide: Ac-ISRRLIDRTNANFLVWPPC
On to B1, for which the IC50 was 3000 nM with 17 DB-1; 25 nM in the experiment with 22 DB-1; less than 2 nM with Rb 66; 400 nM in the experiment with 13 DB-1; 18 nM with 19 DB-1; 2 nM with Rb 39. Besides, the 50% inhibitory concentration (IC50) with Rb 38 worked out at 74 nM; with Rb 112, 3 nM; with 21 DB-1 it was 30 nM; with Rb 37 it was 10 nM; in the experiment with Rb 109, 4 nM; with 2 DMB it was 2000 nM. The IC50 was found to be 3 nM with Rb 65, 1200 nM with 9 DB-1 and 150 nM with 4 DMB.

B2: GP21a (peptide)
peptide: RKIEIVRKKPIFKKATV
On to B2, for which the concentration for half-maximal inhibition (IC50) in the experiment with Rb 78 was 100 nM.

B3: GP4 (peptide)
peptide: Ac-ISRRLIDRTNANFLC
modifications: not fully specified; printed as Ac-25I-S-R-R-L-I-D-R-T-N-A-N-F-L38-C
Regarding B3, the concentration for half-maximal inhibition (IC50) with 17 DB-1 was 180 nM; with 22 DB-1 it was 20 nM; with Rb 66 it was less than 2 nM; with 13 DB-1, 200 nM; in the experiment with 19 DB-1, 18 nM; in the experiment with 10 DB-1 it was 400 nM. Further, the 50% inhibitory concentration (IC50) with Rb 39 worked out at 2 nM; with 12 DB-1, 2000 nM; with Rb 38, 150 nM; with Rb 112 it was 2 nM; with 21 DB-1, 18 nM; with Rb 37 it was 20 nM. In addition, the IC50 with Rb 109 was determined as 2 nM; with 2 DMB, 2000 nM; with Rb 65, 3 nM; with 9 DB-1 it was 1000 nM; in the experiment with 4 DMB, 150 nM.

B4: GP8 (peptide)
peptide: Ac-RKIEIVRKKC
For B4, the IC50 with Rb 67 is 2 nM; with Rb 68, less than 2 nM.
